Source: patent US20030228675

What was measured:
[1] = target: GST-hUpf1 1019-1118 (GST fusion protein containing the carboxyl-terminal region of hUpf1, amino acids 1019-1118) (UniProt Q92900)
[2] = test system: GST-p53 1-70 (GST fusion protein containing the first 70 amino acids of p53)

| Substance | phosphorylation in immune complex kinase assay (GST-p53 1-70 (S15A)) | phosphorylation in immune complex kinase assay [1] | phosphorylation in immune complex kinase assay, compared with GST-hUpf1 1019-1118 [2] | specific kinase activity (ratio of 32P incorporation into substrate to level of HA-tagged protein kinase), relative to ATMWT [2] | specific kinase activity in immune complex kinase assay [2] |
| --- | --- | --- | --- | --- | --- |
| HA-ATXWT (HA-tagged wild-type long ATX) | phosphorylation of GST-p531-70 by ATXWT was nearly abolished by substitution of the Ser-15 residue in p53 with Ala | this substrate was phosphorylated by both ATM and ATX, with the latter protein kinase showing the higher specific catalytic activity | GST-p531-70 was more avidly phosphorylated by ATX than was the GST-hUpf11019-1118 substrate | the specific kinase activity of ATXWT was approximately 3.5-fold higher than that of ATMWT | – |
| HA-ATMWT (HA-tagged wild-type ATM) | – | this substrate was phosphorylated by both ATM and ATX, with the latter protein kinase showing the higher specific catalytic activity | – | – | the specific kinase activity of HA-ATXWT towards GST-p531-70 was significantly higher than that of HA-ATM |
